Test results published in patent US20250333749A1, “INDUCIBLE PROMOTER, VECTOR AND HOST CELL BASED THEREON” (JOINT STOCK COMPANY «BIOCAD», priority 2021, published 2025).

What was measured:
[1] = system: HEK293 Nf-kB reporter line; experiment: Activation of HEK293 Nf-kB reporter line by PMA (luciferase); format: cell-based; settings: 24 hours incubation; FIG. 5
Protocol: (§1) We used a PMA activator to screen clonal reporter lines. This agent directly effects protein kinase C, thus triggering signaling cascades that activate the reporter gene expression (https://doi.org/10.1007/s11373-005-1210-5; doi: 10.1093/carcin/bgm261). To determine the optimal dose of PMA, we conducted experiments involving activation of the HEK293 Nf-kB reporter line. Cells were seeded in a white 96-well culture plate for adhesion cultures at 3*10^5 cells per well, and PMA activator was added at concentrations indicated in the graph up to 150 μl in a well. All solutions were prepared in DMEM growth medium supplemented with 10% fetal bovine serum, 2 mM L-glutamine and 10 μg/ml gentamicin. The plate was incubated for 24 hours at 37° C. in a humid atmosphere in the presence of 5% CO2. Following incubation, the wells were drained, and 100 μl of luciferin substrate with a lysing component was added, the plate was left in the dark for 10 minutes, after which the luminescence level was detected using a plate reader using the SparkControl V2.1 software package (Tecan, Austria).

[2] = target: AXL receptor expressed on HEK293 reporter cells (HEK293_STAT3-STAT5-AP1_FLuc_AXL; HEK293_AXL_STAT3-STAT5-AP1_FLuc) (UniProt P30530); experiment: cell-based or functional assay
UniProt P30530, sequence (P30530 26-894 limits assumed): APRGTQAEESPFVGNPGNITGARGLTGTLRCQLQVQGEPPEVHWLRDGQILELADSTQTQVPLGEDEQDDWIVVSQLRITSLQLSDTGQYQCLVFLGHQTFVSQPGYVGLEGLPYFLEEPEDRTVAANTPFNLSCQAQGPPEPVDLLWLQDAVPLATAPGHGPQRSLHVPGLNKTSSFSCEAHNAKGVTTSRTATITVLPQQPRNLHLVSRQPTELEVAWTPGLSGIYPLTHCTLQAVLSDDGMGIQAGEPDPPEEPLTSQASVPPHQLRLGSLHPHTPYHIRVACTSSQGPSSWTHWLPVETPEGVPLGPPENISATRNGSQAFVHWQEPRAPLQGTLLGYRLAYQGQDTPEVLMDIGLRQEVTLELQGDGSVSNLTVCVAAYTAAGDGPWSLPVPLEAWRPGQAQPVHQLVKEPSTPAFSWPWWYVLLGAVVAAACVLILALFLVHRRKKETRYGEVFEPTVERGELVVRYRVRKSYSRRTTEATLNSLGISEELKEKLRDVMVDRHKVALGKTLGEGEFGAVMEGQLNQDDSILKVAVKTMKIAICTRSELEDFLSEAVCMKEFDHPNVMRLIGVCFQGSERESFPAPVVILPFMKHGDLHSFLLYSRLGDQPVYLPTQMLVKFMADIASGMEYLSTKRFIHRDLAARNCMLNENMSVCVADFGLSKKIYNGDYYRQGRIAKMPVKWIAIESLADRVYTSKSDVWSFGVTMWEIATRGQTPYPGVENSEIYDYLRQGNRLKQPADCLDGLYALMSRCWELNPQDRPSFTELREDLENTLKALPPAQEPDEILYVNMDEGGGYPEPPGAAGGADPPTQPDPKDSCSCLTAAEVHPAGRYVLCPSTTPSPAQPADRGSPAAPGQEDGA

[3] = system: HEK293-STAT3-STAT5-AP1_FLuc_IL10R cells (IL-10 receptor); experiment: IL10 activity determination test (luciferase expression activation); format: cell-based, human; settings: various concentrations of IL10; FIG. 8
Protocol: as §1
To evaluate the reporter line in a specific cell test, we expressed the IL-10 receptor onto the surface of the reporter cells. To this end, the HEK293_STAT3-STAT5-AP1_FLuc reporter cell line produced in Example 4 was transfected with plasmid vectors encoding IL-10 receptor subunits produced in Example 2. […]

## CCCCCCCCCCCCCC(=O)O[C@@H]1[C@@H](C)[C@@]2(O)[C@@H](C=C(CO)C[C@]3(O)C(=O)C(C)=C[C@@H]23)[C@@H]2C(C)(C)[C@]12OC(C)=O [PMA]
[1]
  optimal concentration of the PMA activator: 33 nM

## AXL ligand GAS6 (from UniProt Q14393 49-678)
[2]
  level of GAS6-dependent activation, well A1 (fold over non-activated cells): 1.35
  level of GAS6-dependent activation, well A2 (fold over non-activated cells): 1.59
  level of GAS6-dependent activation, well A3 (fold over non-activated cells): 8.66
  level of GAS6-dependent activation, well A4 (fold over non-activated cells): 1.09
  level of GAS6-dependent activation, well A6 (fold over non-activated cells): 1.49
  level of GAS6-dependent activation, well A7 (fold over non-activated cells): 2.16
  level of GAS6-dependent activation, well A8 (fold over non-activated cells): 0.85
  level of GAS6-dependent activation, well A9 (fold over non-activated cells): 0.96
  level of GAS6-dependent activation, well A10 (fold over non-activated cells): 6.93
  level of GAS6-dependent activation, well A11 (fold over non-activated cells): 1.54
  level of GAS6-dependent activation, well B1 (fold over non-activated cells): 1.09
  level of GAS6-dependent activation, well B2 (fold over non-activated cells): 2.12
  level of GAS6-dependent activation, well B3 (fold over non-activated cells): 1.33
  level of GAS6-dependent activation, well B4 (fold over non-activated cells): 1.28
  level of GAS6-dependent activation, well B5 (fold over non-activated cells): 1.5
  level of GAS6-dependent activation, well B6 (fold over non-activated cells): 0.99
  level of GAS6-dependent activation, well B7 (fold over non-activated cells): 1.12
  level of GAS6-dependent activation, well B8 (fold over non-activated cells): 2.1
  level of GAS6-dependent activation, well B9 (fold over non-activated cells): 1.26
  level of GAS6-dependent activation, well B10 (fold over non-activated cells): 1.58
  level of GAS6-dependent activation, well B11 (fold over non-activated cells): 2.56
  level of GAS6-dependent activation, well B12 (fold over non-activated cells): 1.4
  level of GAS6-dependent activation, well C1 (fold over non-activated cells): 0.92
  level of GAS6-dependent activation, well C2 (fold over non-activated cells): 1.32
  level of GAS6-dependent activation, well C3 (fold over non-activated cells): 0.95
  level of GAS6-dependent activation, well C4 (fold over non-activated cells): 1.2
  level of GAS6-dependent activation, well C5 (fold over non-activated cells): 1.2
  level of GAS6-dependent activation, well C6 (fold over non-activated cells): 4.37
  level of GAS6-dependent activation, well C8 (fold over non-activated cells): 1.04
  level of GAS6-dependent activation, well C9 (fold over non-activated cells): 1.77
  level of GAS6-dependent activation, well C10 (fold over non-activated cells): 3.15
  level of GAS6-dependent activation, well C11 (fold over non-activated cells): 5.55
  level of GAS6-dependent activation, well C12 (fold over non-activated cells): 1.47
  level of GAS6-dependent activation, well D1 (fold over non-activated cells): 1.25
  level of GAS6-dependent activation, well D2 (fold over non-activated cells): 1.29
  level of GAS6-dependent activation, well D3 (fold over non-activated cells): 2.38
  level of GAS6-dependent activation, well D4 (fold over non-activated cells): 2.41
  level of GAS6-dependent activation, well D5 (fold over non-activated cells): 2.63
  level of GAS6-dependent activation, well D6 (fold over non-activated cells): 1.32
  level of GAS6-dependent activation, well D7 (fold over non-activated cells): 1.16
  level of GAS6-dependent activation, well D8 (fold over non-activated cells): 2.12
  level of GAS6-dependent activation, well D9 (fold over non-activated cells): 1.55
  level of GAS6-dependent activation, well D10 (fold over non-activated cells): 1.68
  level of GAS6-dependent activation, well D11 (fold over non-activated cells): 3.74
  level of GAS6-dependent activation, well D12 (fold over non-activated cells): 1.23
  level of GAS6-dependent activation, well E1 (fold over non-activated cells): 1.83
  level of GAS6-dependent activation, well E2 (fold over non-activated cells): 0.93
  level of GAS6-dependent activation, well E3 (fold over non-activated cells): 3.03
  level of GAS6-dependent activation, well E4 (fold over non-activated cells): 1.18
  level of GAS6-dependent activation, well E5 (fold over non-activated cells): 1.73
  level of GAS6-dependent activation, well E6 (fold over non-activated cells): 1.51
  level of GAS6-dependent activation, well E7 (fold over non-activated cells): 2.14
  level of GAS6-dependent activation, well E8 (fold over non-activated cells): 1.13
  level of GAS6-dependent activation, well E9 (fold over non-activated cells): 1.74
  level of GAS6-dependent activation, well E10 (fold over non-activated cells): 1.55
  level of GAS6-dependent activation, well E11 (fold over non-activated cells): 0.86
  level of GAS6-dependent activation, well E12 (fold over non-activated cells): 1.03
  level of GAS6-dependent activation, well F1 (fold over non-activated cells): 1.55
  level of GAS6-dependent activation, well F2 (fold over non-activated cells): 1.34
  level of GAS6-dependent activation, well F3 (fold over non-activated cells): 7.48
  level of GAS6-dependent activation, well F4 (fold over non-activated cells): 1.79
  level of GAS6-dependent activation, well F5 (fold over non-activated cells): 1.69
  level of GAS6-dependent activation, well F7 (fold over non-activated cells): 2.89
  level of GAS6-dependent activation, well F8 (fold over non-activated cells): 1.58
  level of GAS6-dependent activation, well F9 (fold over non-activated cells): 1.53
  level of GAS6-dependent activation, well F10 (fold over non-activated cells): 1.35
  level of GAS6-dependent activation, well F11 (fold over non-activated cells): 1.29
  level of GAS6-dependent activation, well F12 (fold over non-activated cells): 5.65
  level of GAS6-dependent activation, well G1 (fold over non-activated cells): 2.05
  level of GAS6-dependent activation, well G2 (fold over non-activated cells): 3.08
  level of GAS6-dependent activation, well G3 (fold over non-activated cells): 2.51
  level of GAS6-dependent activation, well G4 (fold over non-activated cells): 1.05
  level of GAS6-dependent activation, well G5 (fold over non-activated cells): 1.55
  level of GAS6-dependent activation, well G7 (fold over non-activated cells): 2.12
  level of GAS6-dependent activation, well G8 (fold over non-activated cells): 2.51
  level of GAS6-dependent activation, well G9 (fold over non-activated cells): 1.78
  level of GAS6-dependent activation, well G10 (fold over non-activated cells): 2.5
  level of GAS6-dependent activation, well G11 (fold over non-activated cells): 2.26
  level of GAS6-dependent activation, well G12 (fold over non-activated cells): 3.43
  level of GAS6-dependent activation, well H11 (the pool) (fold over non-activated cells): 3.61
  level of GAS6-dependent activation, well H12 (fold over non-activated cells): 1.94

B1: IL10: Recombinant human IL10 used as an activator (protein)
chain: SPGQGTQSENSCTHFPGNLPNMLRDLRDAFSRVKTFFQMKDQLDNLLLKESLLEDFKGYLGCQALSEMIQFYLEEVMPQAENQDPDIKAHVNSLGENLKTLRLRLRRCHRFLPCENKSKAVEQVKNAFNKLQEKGIYKAMSEFDIFINYIEAYMTMKIRN
[3]
  response of the reporter cell line to IL10 activator: dose-dependent response
